Experimental data as given in patent US20240417436A1 (BRIGHT PEAK THERAPEUTICS, published 2024).
Read-outs that look alike come from different tables or passages of the source. One block for each binder: values may come before it. Bridges are numbered along the chain shown (N, C = ends). Primed or numbered codes have the meaning given here. [ ]: non-standard residue; d: D form. Ygp″ = O-(PEG8-amino)-tyrosine (O-(8x polyethylene glycol-amino)-tyrosine); Yn3″ = O-(PEG9-azido)-tyrosine (O-(9x polyethylene glycol-azido)-tyrosine); Ygp = O-(8x polyethylene glycol-amino)-tyrosine; Yn3 = O-(9x polyethylene glycol-azido)-tyrosine; PEG16′ = 16x polyethylene glycol; hSer = N[C@@H](CCO)C(=O)O; Nle = CCCC[C@H](N)C(=O)O

Experiments:
[1] = target: T1, IL-2 receptor βγ complex on pan T cells (human, UniProt P14784 27-551; P31785 23-369); experiment: cell-based or functional assay
T1 sequence (looked up) 1: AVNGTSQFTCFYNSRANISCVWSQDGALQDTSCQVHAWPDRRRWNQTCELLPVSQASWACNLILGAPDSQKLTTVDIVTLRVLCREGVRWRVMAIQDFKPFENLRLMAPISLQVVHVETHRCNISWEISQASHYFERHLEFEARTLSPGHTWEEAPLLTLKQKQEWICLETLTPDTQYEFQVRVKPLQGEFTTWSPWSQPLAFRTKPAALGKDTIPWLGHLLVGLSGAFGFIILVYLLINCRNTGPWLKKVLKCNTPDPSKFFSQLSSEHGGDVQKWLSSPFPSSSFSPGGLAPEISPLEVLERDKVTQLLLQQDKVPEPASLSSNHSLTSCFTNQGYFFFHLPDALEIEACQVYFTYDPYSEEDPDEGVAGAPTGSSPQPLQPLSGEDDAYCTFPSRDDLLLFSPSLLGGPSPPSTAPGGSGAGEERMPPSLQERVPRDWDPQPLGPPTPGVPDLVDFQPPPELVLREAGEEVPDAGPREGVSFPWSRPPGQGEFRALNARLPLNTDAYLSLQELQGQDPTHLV
T1 sequence (looked up) 2: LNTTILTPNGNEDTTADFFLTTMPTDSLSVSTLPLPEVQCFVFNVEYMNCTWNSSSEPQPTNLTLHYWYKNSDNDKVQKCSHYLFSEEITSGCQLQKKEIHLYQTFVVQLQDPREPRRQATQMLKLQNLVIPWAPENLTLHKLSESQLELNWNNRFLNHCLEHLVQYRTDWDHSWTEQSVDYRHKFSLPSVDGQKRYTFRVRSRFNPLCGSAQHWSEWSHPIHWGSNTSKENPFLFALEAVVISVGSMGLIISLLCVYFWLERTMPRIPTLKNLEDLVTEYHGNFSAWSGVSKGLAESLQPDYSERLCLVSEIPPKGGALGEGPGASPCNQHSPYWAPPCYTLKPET

[2] = target: T1, IL-2 receptor βγ complex on pan T cells; experiment: cell-based or functional assay; remark: listed apart in the source

Average EC50, pSTAT5 assay in pan T cells, intact molecule [2]: 16.1 nM
B3: CMP-152 (ligand)
chain: PLGLAGAPTSSSTKKTQLQLEHLLLDLQ[Nle]ILNGINNYKNPKLTR[Nle]L[hSer][Yn3]KF[Ygp][Nle]PKKATELKHLQCLEEELKPLEEVL[hSer]LAQSKNFHLRPRDLISNINVIVLELKGSETTF[hSer]CEYADETATIVEFLNRWITFSQSIISTLT
modifications: linker N-38 via 1,5‑pentanedioic acid‑9x polyethylene glycol

Average EC50, pSTAT5 assay in pan T cells, MMP2 cleaved molecule [2]: 1.81 nM
B4: CMP-151, MMP2 cleaved (ligand)
chain: APTSSSTKKTQLQLEHLLLDLQKILNGINNYKNPKLTR[Nle]L[hSer][Yn3]KF[Ygp][Nle]PKKATELKHLQCLEEELKPLEEVL[hSer]LAQSKNFHLRPRDLISNINVIVLELKGSETTF[hSer]CEYADETATIVEFLNRWITFSQSIISTLT
modifications: disulfide 58-105; also: MMP2-cleaved cleavable peptide, macrocycle opened, cut site not given here, remnants on Lys23 and Ala1 N-terminus unspecified

Average EC50, pSTAT5 assay in pan T cells, MMP2 cleaved molecule [2]: 2.95 nM
B6: CMP-152, MMP2 cleaved (ligand)
chain: PLGLAGAPTSSSTKKTQLQLEHLLLDLQ[Nle]ILNGINNYKNPKLTR[Nle]L[hSer][Yn3]KF[Ygp][Nle]PKKATELKHLQCLEEELKPLEEVL[hSer]LAQSKNFHLRPRDLISNINVIVLELKGSETTF[hSer]CEYADETATIVEFLNRWITFSQSIISTLT
modifications: also: macrocycle (glutaric acid-9x PEG linker between residue 1 and Lys38 side chain) opened by MMP2 cleavage within PLGLAG, cut site not given here

Average EC50, pSTAT5 assay in pan T cells, MMP2 cleaved molecule [2]: 4.2 nM
B8: CMP-154, MMP2 cleaved (ligand)
chain: PLGLAGAPTSSSTKKTQLQLEHLLLDLQ[Nle]ILNGIENYKNPKLTR[Nle]L[hSer][Yn3]KF[Ygp][Nle]PKKATELKHLQCLEEELKPLEEVL[hSer]LAQSKNFHLRPRDLISNINVIVLELKGSETTF[hSer]CEYADETATIVEFLNRWITFSQSIISTLT
modifications: also: macrocycle (9x PEG linker between residue 1 and Glu35 side chain) opened by MMP2 cleavage within PLGLAG, cut site not given here

Average EC50, pSTAT5 assay in pan T cells, intact molecule [2]: 24.7 nM
B11: CMP-154 (ligand)
chain: PLGLAGAPTSSSTKKTQLQLEHLLLDLQ[Nle]ILNGIENYKNPKLTR[Nle]L[hSer][Yn3]KF[Ygp][Nle]PKKATELKHLQCLEEELKPLEEVL[hSer]LAQSKNFHLRPRDLISNINVIVLELKGSETTF[hSer]CEYADETATIVEFLNRWITFSQSIISTLT
modifications: linker N-35 via 9x polyethylene glycol

The next lines start with the binder.

B1: CMP-149, MMP2 cleaved (ligand)
chain: APTSSSTKKTQLQLEHLLKDLQ[Nle]ILNGINNYKNPKLTR[Nle]L[hSer][Yn3]KF[Ygp][Nle]PKKATELKHLQCLEEELKPLEEVL[hSer]LAQSKNFHLRPRDLISNINVIVLELKGSETTF[hSer]CEYADETATIVEFLNRWITFSQSIISTLT
modifications: not fully specified (residue 19); ends and bridges not checked; also: MMP2-cut remnant of cleavable moiety on Lys19 side chain, not given here
Average EC50, pSTAT5 assay in pan T cells, MMP2 cleaved molecule [1]: 9.56 nM

B2: CMP-150, MMP2 cleaved (ligand)
chain: APTSSSTKKTQLQLEHLLLDLK[Nle]ILNGINNYKNPKLTR[Nle]L[hSer][Yn3]KF[Ygp][Nle]PKKATELKHLQCLEEELKPLEEVL[hSer]LAQSKNFHLRPRDLISNINVIVLELKGSETTF[hSer]CEYADETATIVEFLNRWITFSQSIISTLT
modifications: also: K22 side chain bears remnant of cleavable peptide after MMP2 cut, cut site not given here
Average EC50, pSTAT5 assay in pan T cells, MMP2 cleaved molecule [1]: 0.45 nM

B5: CMP-150 (ligand)
chain: APTSSSTKKTQLQLEHLLLDLK[Nle]ILNGINNYKNPKLTR[Nle]L[hSer][Yn3]KF[Ygp][Nle]PKKATELKHLQCLEEELKPLEEVL[hSer]LAQSKNFHLRPRDLISNINVIVLELKGSETTF[hSer]CEYADETATIVEFLNRWITFSQSIISTLT
modifications: not fully specified (residue 22); ends and bridges not checked; also: cleavable moiety on Lys22 side chain, structure not given here
Average EC50, pSTAT5 assay in pan T cells, intact molecule [1]: 6.38 nM

B7: CMP-137, MMP2 cleaved (ligand)
chain: APTSSSTKKTQLQLEHLLLDLQ[Nle]ILNGIENYKNPKLTR[Nle]L[hSer][Yn3″]KF[Ygp″][Nle]PKKATELKHLQCLEEELKPLEEVL[hSer]LAQSKNFHLRPRDLISNINVIVLELKGSETTF[hSer]CEYADETATIVEFLNRWITFSQSIISTLT
modifications: not fully specified (residue 29, N-terminus); ends and bridges not checked; also: macrocycle opened by MMP2, Ala1 N-terminus and Glu29 side chain each carry PEG24-linked peptide remnant, cut site not given here
Average EC50, pSTAT5 assay in pan T cells, MMP2 cleaved molecule [2]: 4.09 nM

B9: CMP-148 (ligand)
chain: APTSSSTKKTQLQLKHLLLDLQ[Nle]ILNGINNYKNPKLTR[Nle]L[hSer][Yn3]KF[Ygp][Nle]PKKATELKHLQCLEEELKPLEEVL[hSer]LAQSKNFHLRPRDLISNINVIVLELKGSETTF[hSer]CEYADETATIVEFLNRWITFSQSIISTLT
modifications: not fully specified (residue 15); ends and bridges not checked; also: cleavable moiety on Lys15 side chain, structure not given here
Average EC50, pSTAT5 assay in pan T cells, intact molecule [1]: 3.57 nM

B10: CMP-149 (ligand)
chain: APTSSSTKKTQLQLEHLLKDLQ[Nle]ILNGINNYKNPKLTR[Nle]L[hSer][Yn3]KF[Ygp][Nle]PKKATELKHLQCLEEELKPLEEVL[hSer]LAQSKNFHLRPRDLISNINVIVLELKGSETTF[hSer]CEYADETATIVEFLNRWITFSQSIISTLT
modifications: not fully specified (residue 19); ends and bridges not checked; also: cleavable moiety on Lys19 side chain, structure not given here
Average EC50, pSTAT5 assay in pan T cells, intact molecule [1]: 46.7 nM

B12: CMP-139, MMP2 cleaved (ligand)
chain: [PEG16′]APTSSSTKKTQLQLEHLLLDLQ[Nle]ILNGIE(PEG16′)NYKNPKLTR[Nle]L[hSer][Yn3]KF[Ygp][Nle]PKKATELKHLQCLEEELKPLEEVL[hSer]LAQSKNFHLRPRDLISNINVIVLELKGSETTF[hSer]CEYADETATIVEFLNRWITFSQSIISTLT
modifications: numbers in words are those of the source; ends and bridges not checked; also: cleavable peptide cut by MMP2, macrocycle opened, cut site not given here
Average EC50, pSTAT5 assay in pan T cells, MMP2 cleaved molecule [2]: 3.61 nM

B13: CMP-148, MMP2 cleaved (ligand)
chain: APTSSSTKKTQLQLKHLLLDLQ[Nle]ILNGINNYKNPKLTR[Nle]L[hSer][Yn3]KF[Ygp][Nle]PKKATELKHLQCLEEELKPLEEVL[hSer]LAQSKNFHLRPRDLISNINVIVLELKGSETTF[hSer]CEYADETATIVEFLNRWITFSQSIISTLT
modifications: not fully specified (residue 15); ends and bridges not checked; also: MMP2-cut remnant of cleavable moiety on Lys15 side chain, not given here
Average EC50, pSTAT5 assay in pan T cells, MMP2 cleaved molecule [1]: 0.95 nM

B14: CMP-136, MMP2 cleaved (ligand)
chain: APTSSSTKKTQLQLEHLLLDLQXILNGIENYKNPKLTRXLXYKFYXPKKATELKHLQCLEEELKPLEEVLXLAQSKNFHLRPRDLISNINVIVLELKGSETTFXCEYADETATIVEFLNRWITFSQSIISTLT
modifications: not fully specified; as CMP-136 but cleavable peptide cut by MMP2 (macrocycle opened); cut site not given
Average EC50, pSTAT5 assay in pan T cells, MMP2 cleaved molecule [2]: 2.4 nM

B15: CMP-138, MMP2 cleaved (ligand)
chain: B14 chain
modifications: not fully specified; as CMP-138 but cleavable peptide cut by MMP2 (macrocycle opened); cut site not given
Average EC50, pSTAT5 assay in pan T cells, MMP2 cleaved molecule [2]: 2.32 nM
